Article PMC7517352 (Frontiers in Microbiology, 2020)

Molecular target: T1, VapC21 toxin (Rv2757c) of the VapBC21 complex co-expressed from pET-Duet (M. tuberculosis, UniProt P9WF91 1-138)
T1 construct: also called VapC21 (in VapBC21 complex); not shown: His6, N-terminal, kept
T1 sequence: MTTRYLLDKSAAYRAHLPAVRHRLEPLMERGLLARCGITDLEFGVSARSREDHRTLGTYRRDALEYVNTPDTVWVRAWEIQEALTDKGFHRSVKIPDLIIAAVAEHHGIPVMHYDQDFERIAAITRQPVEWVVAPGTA
Experiment: SEC-MALS
Settings: both partners purified

B1: VapB21 antitoxin (Rv2758c) of the VapBC21 complex co-expressed from pET-Duet (natural protein)
chain: MHRGYALVVCSPGVTRTMIDIDDDLLARAAKELGTTTKKDTVHAALRAALRASAARSLMNRMAENATGTQDEALVNAMWRDGHPENTA
notes: also called VapB21 (in VapBC21 complex)
B1 was tested, and the “stoichiometry N” value was 1 antitoxin per toxin (4:4).
